This series is described as follows: Safety assessment after i.p. peptide mixture in mice. As to conditions: positive control, same conditions, day 7.

Procedure: To assess potential immunogenicity following peptide administration, we performed enzyme-linked immunosorbent assays (ELISA) to measure peptide-specific IgG responses.
(E) Detection of peptide-specific IgG in plasma by ELISA following peptide or control antigen administration.
Mice were injected (i.p.) with human-derived or viral-derived peptide mixtures, or OVA protein (InvivoGen #vac-pova). Plasma was collected at 24 h for cytokine analysis (BD #552364) and at day 7 for peptide- or OVA-specific antibody detection via direct ELISA.

B1: OVA: OVA protein (InvivoGen #vac-pova), positive control (protein, UniProt P01012 2-386, looked up)
Ovalbumin: GSIGAASMEFCFDVFKELKVHHANENIFYCPIAIMSALAMVYLGAKDSTRTQINKVVRFDKLPGFGDSIEAQCGTSVNVHSSLRDILNQITKPNDVYSFSLASRLYAEERYPILPEYLQCVKELYRGGLEPINFQTAADQARELINSWVESQTNGIIRNVLQPSSVDSQTAMVLVNAIVFKGLWEKAFKDEDTQAMPFRVTEQESKPVQMMYQIGLFRVASMASEKMKILELPFASGTMSMLVLLPDEVSGLEQLESIINFEKLTEWTSSNVMEERKIKVYLPRMKMEEKYNLTSVLMAMGITDVFSSSANLSGISSAESLKISQAVHAAHAEINEAGREVVGSAEAGVDAASVSEEFRADHPFLFCIKHIATNAVLFFGRCVSP
On to B1, for which the “OVA-specific antibody response (direct ELISA)” value is “robust antibody response”.

For the origin of these results see paper PMC13572001, “Sequence-based artificial intelligence-guided inhibitory peptides to counteract AAV neutralizing antibodies in gene therapy” (Molecular Therapy Advances, 2026).
